{
  "source": "the nanobody polyreactivity screen of Harvey et al. (2022)",
  "data": [
    {"test": "yeast display, Sf9 membrane polyspecificity reagent, FACS + sequencing; frameworks hold sequencing errors", "method_in_brief": "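Galactose induction of a Saccharomyces cerevisiae BJ5465 synthetic nanobody display library ran 36–48 hours. The cells were then stained for 1 hour at 4 °C with 10% biotinylated, detergent-solubilized Sf9 membrane reagent, pulled down on streptavidin microbeads and FACS-sorted into low and high (top ~1%) gates on expression and reagent-binding fluorescence. Labels for polyreactivity follow the gate of origin.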", "values": [
      {"sequence": "QVQLVESGGGLVQAGGSRRLTCAASGFTFEYYAMGWYRQAPGTERELVAAISYSGSSTYYADSVKGRFTISRDNAKNTVYLQMNSLKPEDTAVYYCAARAVSRRFDYWGQGTQVTVSS", "polyreactivity (PSR sort gate)": "high polyreactivity"},
      {"sequence": "QVQLVESGGGLVQAGGSRSLSCAASGRIFTVYAMGWYRQAPGKERELVAAISGRGGRTTYADSVKGRFTISRDNAKNTVFLQMNSLKPEDTAVYYCAAAYLRYVSTQYHYDYWGEGTQVTVSS", "polyreactivity (PSR sort gate)": "low polyreactivity"},
      {"sequence": "QVQLVESGGGLVQAGGSVRLICAASGSIFYTYAMGWYRQAPGKERELVAAISKRGGSTYDADSVKGRFTISRDNAKNTVYLQMNSLKPEDTAVYYCAADTQHVYGSNFYYWGQGTQVTVSS", "polyreactivity (PSR sort gate)": "high polyreactivity"},
      {"sequence": "QVQLVESGGGLVQAGGSVRLSCAASGFIFWYSAMGWYRQAPGKERELVAAISGTGGTTYYADSVKGRFTISRDNAKNTVYLQMNSLKPEDTAVYYCNFRYDSRRTAIGYAYWGQGTQETVSS", "polyreactivity (PSR sort gate)": "low polyreactivity"},
      {"sequence": "QVQLVESGGGLVQAGGSVRLSCAASGRIFRHNTRGWYRQAPGKERELVAAITFSDGNTYYADSVKGRFTISRDNAKNTVYLQMNSLKPEDTAVYYCNAGYSYGVSYAEGGYWGQGTQVTVSS", "polyreactivity (PSR sort gate)": "low polyreactivity"},
      {"sequence": "QVQLVESGGGLVQAGGSVRLSCAASGRTFYYNAMGWYRQAPGKERELVAAISWSGGSTYYADSVKGRFTISRDNAKNTVYLQMNSLKPEDTAVYYCAARSRYYHFDYWGQGTQVTVSS", "polyreactivity (PSR sort gate)": "high polyreactivity"},
      {"sequence": "QVQLVESGGGLVQAGGSVRLSCAASGSIFTGYAMGWYRQAPGKERELVAAISRSSGSTYYADSVKGRFTISRDNAKNTVYLQMNSLKPEDTAVYYCNAYSKYRSGRLYWMGYWGQGTQVTVSS", "polyreactivity (PSR sort gate)": "high polyreactivity"},
      {"sequence": "QVQLVESGGGLVQAGGTLLLTCAASGFIFDIYAMGWSRPAPGKERELVAAITWNSGSTHYADSVKGRFTISRDTAKNTVYLQMNRLKPEDTAVYYCAADEVTYAYYPYDYWGQGTQVTVSS", "polyreactivity (PSR sort gate)": "low polyreactivity"},
      {"sequence": "QVQLVESGGGLVQAGGTLRISCAASGITINYNAMGWYRQAPGKEMELVAAITRSGGSTNYADSVKGRFTISRDNAKNTVYLQMNSLKPEDTAVYYCAKGHLYAGHRHYAYGYWGQGTQVTVSS", "polyreactivity (PSR sort gate)": "low polyreactivity"},
      {"sequence": "QVQLVESGGGLVQAGGTLRISCAASGSIFWYYAMGSYRQAPGKERELVAAISKSGGSTYYADSVKVRFTISRDNAKNTVYLQMNSLKQEDTAVYYCAKYGPVIDGVDYWGQGTQVTVSS", "polyreactivity (PSR sort gate)": "low polyreactivity"},
      {"sequence": "QVQLVESGGGLVQAGGTLRLICAASGSTLYWNAMGLYRQAPGKQRELVAGISIGGRTNYADSVKGRFTISRDNAKNTVYLQMISLKPEDTAVYYCNAENTYLGSRYRPYNYWGQGTQVTVSS", "polyreactivity (PSR sort gate)": "low polyreactivity"},
      {"sequence": "QVQLVESGGGLVQAGGTLRLICAATGRTFDFNAMGWYRQAPGKERELVAAITESGGSTYYADSVKGRFTISRDNAKNTVYLQMNSLKPEDTAVYYCAVAGNYYRDYPEVSYFSIYNYWGQGTQVTVSS", "polyreactivity (PSR sort gate)": "low polyreactivity"},
      {"sequence": "QVQLVESGGGLVQAGGTLRLSCAASGFIFDWNTKGWYRQAPGKERELVAAITESSGSTYYADSVKGRFTISRDNAKNTVYLQMNSLKPEDTAVYYCAAELDVYVSIGSRFHFDYWGQGTQVTVSS", "polyreactivity (PSR sort gate)": "low polyreactivity"},
      {"sequence": "QVQLVESGGGLVQAGGTLRLSCAASGFIFENYAMGWYRQAPGKERELVAAISSSGGSTYYADSVKGRFTISRDNAKNTVYLQMNSLKPEDTAVYYCAKDYAPSATKLHYWGQGTQVTVSS", "polyreactivity (PSR sort gate)": "low polyreactivity"},
      {"sequence": "QVQLVESGGGLVQAGGTLRLSCAASGFLFVFYDMGWYRQAPAKERELVAGITRNDGSTYYADSVKGRFKISRDNAKNTVYLLMNSLKPEDTAVYYCAADRVRRNDKLAYDYWGQGTQVTVSS", "polyreactivity (PSR sort gate)": "low polyreactivity"},
      {"sequence": "QVQLVESGGGLVQAGGTLRLSCAASGFTFGYYAMGWYRPAPGKERELVAAISSRGGTTYYADSVKGRFTISRDNAKNTVYLQMNSLKPEDTAVYYCAKDSFRNIYNYWGQGTQVTVSS", "polyreactivity (PSR sort gate)": "high polyreactivity"},
      {"sequence": "QVQLVESGGGLVQAGGTLRLSCAASGGIFSYAMGWYRQAPGKERELVADINSDGSTTYADSVKGRFTISRDNAKNTVYLQMNSLKPEDTAVYYCAADTYFWSYSYNYYYWGQGTQVTVSS", "polyreactivity (PSR sort gate)": "low polyreactivity"},
      {"sequence": "QVQLVESGGGLVQAGGTLRLSCAASGIIFHWYAMGWYRQAPGKERELVAAITQSGGSTSYADSVKGRFTISRDNAKNTVYLQMNSLIPEDTAVYYCNAREVRDEYNYWGQGTQVTVSS", "polyreactivity (PSR sort gate)": "low polyreactivity"},
      {"sequence": "QVQLVESGGGLVQAGGTLRLSCAASGITLKLYVMGWYRQAPGKERELVAAISRRGGSTYYADSVKGRFTLSRDNAKYTVYLQMISLKPEDTAVYYCAKDGTQYERKDPAYGYWGQGTQVTVSS", "polyreactivity (PSR sort gate)": "high polyreactivity"},
      {"sequence": "QVQLVESGGGLVQAGGTLRLSCAASGLIFKKYTMGWYRQAPGKERELVASISKSGGSTYYADSVKGRFTISRDNAKNTVYLQMISLKPEESAVYYCNRVTHYIRFDYWGQGTQVTVSS", "polyreactivity (PSR sort gate)": "low polyreactivity"},
      {"sequence": "QVQLVESGGGLVQAGGTLRLSCAASGLIFVRYAMGWYRQAPGKERELVATITDGGSKYYADSVKGRFTISRDNAKNTVYLQMNSLKPEDTAVYYCNKDRVSVRYEYWGQGTQVTVSS", "polyreactivity (PSR sort gate)": "low polyreactivity"},
      {"sequence": "QVQLVESGGGLVQAGGTLRLSCAASGRIFGPYAMGWYRQAPWKERELVAAISFSGSGTYYADSVKGRFTISRDNAKNTVYFQMNSLKAEDTAVYYCAATSRKIVAFDHDYWGQGTQVTVSS", "polyreactivity (PSR sort gate)": "low polyreactivity"},
      {"sequence": "QVQLVESGGGLVQAGGTLRLSCAASGRTFRQNAMGWYRQAPGKERELVAAISVNGGRTYYADSVKGRFTITRDNAKITVYLQMNSLKPEDTAVYYCAAESYRIPRRSGYDYWGQGTQVTVSS", "polyreactivity (PSR sort gate)": "high polyreactivity"},
      {"sequence": "QVQLVESGGGLVQAGGTLRLSCAASGSIFAHYTMGWYRQAPGKERELVAVISRSGARTYYADSVKGRFTISRDNAKNTVYLQMNSLKPEDTAVYYCAADRTLEEDYWGQGTQVTVSS", "polyreactivity (PSR sort gate)": "low polyreactivity"},
      {"sequence": "QVQLVESGGGLVQAGGTLRLSCAASGSIFTHYAMGWYRQAPGKERELVAAISRRGGSTYYADSVKGRFTNSRDNAKNTVYLQMNSLKPEDSAVYYCAKSPDTAKEYDYWGQGTQVTVSS", "polyreactivity (PSR sort gate)": "high polyreactivity"},
      {"sequence": "QVQLVESGGGLVQAGGTLRLSCAASGSTFGYPMGGYRQSPGKERELVAAMTSTGGSTYYADSVKGRFTISRDNAKITVYLQMNSQKPEDTAVYYCAADAYWIRSRFLYRIRYNYWGLGTQVTVSS", "polyreactivity (PSR sort gate)": "high polyreactivity"},
      {"sequence": "QVQLVESGGGLVQAGGTLRLSCAASGSTFGYYTMGWYRQAPGKERELVAAITWSGGSTYYADSVKGRFTISRDNAKKTVYLQMNSLKAEDSAVSYCAADDYWTPFGYSGQGTQVTVSS", "polyreactivity (PSR sort gate)": "low polyreactivity"},
      {"sequence": "QVQLVESGGGLVQAGGTLRLSCAASGSTFIGNAMGWYIQAPGKERELVAAITRSGGSTFYADSVKGRFTISRDNAKNTVYLQMNSLKPEDTAVYYCAARNGAYPALKEGDYWGQGTQVTVSS", "polyreactivity (PSR sort gate)": "high polyreactivity"},
      {"sequence": "QVQLVESGGGLVQAGGTLRLSCAASGSTFTGNAMGWYRQAPGKERELVASISTGGSTNYADSVKGRFTISRDNAKNTVYLQMNSLKPEDTAVYYCAKRIRYNWTFDDWGQGTQVTVSS", "polyreactivity (PSR sort gate)": "low polyreactivity"},
      {"sequence": "QVQLVESGGGLVQAGGTLRLSCAASGSTFYRYAMGWYRTAPGKERELVATITRSGGSTYYADSVKGRFTISRDNAKNTVYLQMNSLKPEDTAVYYCAARGWYKSDYWGQGTQVTVSS", "polyreactivity (PSR sort gate)": "low polyreactivity"},
      {"sequence": "QVQLVESGGGLVQAGGTLRLSCAASGSTFYSYAMGWYRQAPGKERELVAAISGRGGTTYYADSVKGRFTISRDNAKNTVYLQMNSLKPEDTAVYYCAAEGWDWWTDDDYWGQGTQVTVSS", "polyreactivity (PSR sort gate)": "high polyreactivity"},
      {"sequence": "QVQLVESGGGLVQAGGTLRLSCAASGVIFKVYGMRWYRQAPGKERELVAAISWTTGGTYYADSVKGRFTISRDNAKNTVYLQMNSLKPEDTAVYYCNAPSWYYSGVRYDYWGQGTQVTVSS", "polyreactivity (PSR sort gate)": "high polyreactivity"},
      {"sequence": "QVQLVESGGGLVQAGGTLRLSCAASRITFWYYARGWYIQAPGKERELVAAITSGGSTYYADSVKGRFTISRDNAKNTVYLQMNSLKPEDTAVYYCAKDSVWGAKNLTSYKYYYWGQGTQVTGSS", "polyreactivity (PSR sort gate)": "low polyreactivity"},
      {"sequence": "QVQLVESGGGLVQAGGTLRLSCADSGSTIRNYAMGWYRQAPGKERELVATISASGGSTYYADSVKGRFTISRDNAKNTVYLQLNSLKPEDTAVYYCNAVVKLWGLVIPPGDYDYWRQGTQVTVSS", "polyreactivity (PSR sort gate)": "high polyreactivity"},
      {"sequence": "QVQLVESGGGLVQAGGTLRLSCAPSARTFDRNAMGWYRQAPGKERELVASISWVGTSTYYADSVKGRFTISRDNAKNTVYLQMNSLKPDDSAVYYCAARRVKYISLDYWGQGTQVTVSS", "polyreactivity (PSR sort gate)": "low polyreactivity"},
      {"sequence": "QVQLVESGGGLVQAGGTLRLSCGASGGTFYLYTMGWYRPAPGKERELVAAISRGGSTNYADSVKGRFTISRDNAKNTVYLLMNSLIPEDTAVFYCAAVRSTGFRYYYADEYDYWGQGTQVTVSS", "polyreactivity (PSR sort gate)": "low polyreactivity"},
      {"sequence": "QVQLVESGGGLVQAGGTLRLSCGASGLIFTSNAMGWYRQAPGKESELVAAISNTGGSTYYADSVKGRFTISRDNSKNTVYLQMNSLKPEDTAVYYCAVDPAAGLTNVFYLKYFGYDFWGQGTQVTVSS", "polyreactivity (PSR sort gate)": "low polyreactivity"},
      {"sequence": "QVQLVESGGGLVQAGGTLRLSCPASGRNILGYAMGWYRPAPGKERELVAALRRSGGHTFYADSVKGRFTISRDNAKNRVYFQMNSLKPEDTAVYYCAASTSGAIRRDGFWGQGTQVSVSS", "polyreactivity (PSR sort gate)": "low polyreactivity"},
      {"sequence": "QVQLVESGGGLVQAGGTLRLTCAASGSIFSAYAMGWYRQEPGKEREFVAAITRRGGNTYYADSVKGRFTISRDNAKNTVYVQMNSLKPEDTAVYYCAAVAGGGPFDYWGQGTQVTVSS", "polyreactivity (PSR sort gate)": "low polyreactivity"},
      {"sequence": "QVQLVESGGGLVQAGRILRLSCAASGRTFDSNAMGWYRQAPGKERELVAAISYGGGTTHYADSVKGRFTISRDNAKNTVYLQMNSLKPEYTAVYYCSADPEHLCESVTIGEYDYWGQGTQVTLSS", "polyreactivity (PSR sort gate)": "low polyreactivity"},
      {"sequence": "QVQLVESGGGLVQAGRSHRLSFAASGFTLKGYAMGWYRQAPGKDRELVAAISWNGGRTYYADSVKGRFTISRDNAKNTVYLQMNSLKPEVTAVYYCAAVYRFYSPTKYTYDYWGQGTQVTVSS", "polyreactivity (PSR sort gate)": "high polyreactivity"},
      {"sequence": "QVQLVESGGGLVQAGRSLLLICAASGSTFAYYAMGWYRQAPGKERELVAAINYRATRTYYADSVKGRFTISRDNAKNTVYLQMNSLKPDDTAVDYCIAEPAYYRSNRWPRFEYWGQGTQVTVSS", "polyreactivity (PSR sort gate)": "high polyreactivity"},
      {"sequence": "QVQLVESGGGLVQAGRSLRISCAASGYTFIYYPMGWYRPAPGKERELVATISIDGSTNYADSVKGRFTISRDNAKNTVYLQMNILKPEDTAVYYCNLERYEDYDYWGQGTQVTVSS", "polyreactivity (PSR sort gate)": "high polyreactivity"}
    ]}
  ]
}
